Laboratory results reported in patent publication US20240059758A1 (published 2024).
Residue numbers refer to the chain shown, from its start.

B1: STE72-4E12 (antibody, V domains shown)
VH: QVQLVQSGAEVKKPGASVKVSCKASGYTFTSYYMHWVRQAPGQGLEWMGIINPSGGSTSYAQKFQGRVTMTRDTSTSTVYMELSSLRSEDTAVYYCARDLSGGLDYWGQGTLVTVSS
VL: ETTLTQSPATLSVSPGERVTLACRAGQTISSKLAWYRQKPGQAPSLLIYDASTRATGVPARFSGSGSGTEFTLTISSLQSEDFAVYYCQQYSDWPPTFGQGTKVEIK
B2: STE72-8A2 (antibody, V domains shown)
VH: QVQLVQSGAEVKKPGASVKVSCKASGYTFTSYGISWVRQAPGQGLEWMGWISAYNGNTNYAQKLQGRVTMTTDTSTSTAYMELRSLRSDDTAVYYCARFFYDSSGYSTDYWGQGTLVTVSS
VL: not shown
B3: STE72-8A6 (antibody, V domains shown)
VH: B2 VH
VL: DIVMTQSPSTLSASVGDRVTISCRASQNIGTWLAWYQQKPGKAPKLLISKASSLESGVPSRFSGSGSGTDFTLTISSLQPDDFATYYCQQYDSYLFTFGQGTKLEIR
B4: STE72-2G4 (antibody, V domains shown)
VH: B2 VH
VL: ETTLTQSPAFMSVTPGDRAILSCRASQSVDSHLAWYHQKPGQPPRLLIYGASTRATGIPARFSGSRSGTEFTLTISGLQSEDLGVYYCQQYASWPPGYNFGQGTKLEIK
B5: STE70-1E12 (antibody, V domains shown)
VH: QMQLVQSGAEVKKPGASVKVSCKASGYTFTGYYMHWVRQAPGQGLEWMGRINPNSGGTNYAQKFQGRVTMTRDTSTSTAYMELSRLRSDDTAVYYCVRDGYNFNNWFDPWGQGTLVTVSS
VL: NFMLTQPHSVSGSPGETITISCTGSGGSIASNYVQWYRQRPGSAPTIVIYEDTQRPSGVPDRFSGSIDSSSNSASLTISGLKTEDEADYYCQSSESTNHVMFGGGSKLTVL
B6: STE72-1B6 (antibody, V domains shown)
VH: QVKLVQSGGGLVQPGGSLRLSCAASGFTFSSYAMSWVRQAPGKGLEWVSGISGSGGSTYYADSVKGRFTISRDNSKNTLYLQVNSLRAEDTAVYYCAKAPYGDFRGLWYFDYWGQGTLVTVSS
VL: DIVMTQSPFSVSASVGDRVTISCRASQDIRSWLAWYQQKPGKAPQLLIYDASSLQSGVPSRFSGSGSGTDFTLTISSLQPEDFATYYCQQADSVPLTFGGGTKVEIQ
B7: STE73-6C1 (antibody, V domains shown)
VH: QVQLVQSGGGVVQPGRSLRLSCAASGFTFSSYAMHWVRQAPGKGLEWVAVISYDGSNKYYADSVKGRFTISRDNSKNTLYLQMNSLRAEDTAVYYCARSYVGGMDVWGQGTTVTVSS
VL: QLVLTQSPSVSGAPGQSVTISCTGTDSNIGAGYNVHWYQQLPGAAPKLIISYTDNRPSGVPDRFSGSKSGTSASLAITGLQAEDEADYYCQSSDRTLVGSLFGTGTKVTVL
B8: STE73-9G3 (antibody, V domains shown)
VH: QVQLQESGGGLVQPGGSLRLSCAASGFTFSSYAMSWVRQAPGKGLEWVSAISGSGGSTYYADSVKGRFTISRDNSKNTLYLQMNSLRAEDTAVYYCARDLVLGSGSSNDWGRGTLVTVSS
VL: B7 VL with L2P, S7P
B9: STE73-2B2 (antibody, V domains shown)
VH: QVQLVQSGAEVKKPGASVKVSCKASGYTFTGYYMHWVRQAPGQGLEWMGWINPNSGGTNYAQKFQGRVTITRDTSASTAYMELSSLRSEDTAVYYCARVSGWYFGAFDIWGQGTMVTVSS
VL: LPVLTQPHSLSESPGKTVNISCTGSSGSIASNYVQWYQQRPGSAPTTVIYEDSHRPSGVPDRFSGSIDSSSNSASLSISGLKTEDEADYYCQSYDSSNNQWVFGGGTKLTVL
B10: STE73-2G8 (antibody, V domains shown)
VH: QVQLVQSGGGLVKPGGSLRLSCAASGITVSSNYMSWVRQAPGKGLEWVSILYSGGTTFYTDSVKGRFTISRDNSKNTLHLQMNSLRAEDTAVYYCARWSGTYYDYWGQGTLVTVSS
VL: SSELTQDPAVSVALGQTVRITCQGDSLRSYYASWYQQKPGQAPVLVIYGKNNRPSGIPDRFSGSSSGNTASLTITGAQAEDEADYYCNSRDSTNDPVLFGAGTKLTVL
B11: STE73-2C2 (antibody, V domains shown)
VH: QVQLVESGGGLVQPGGSLRLSCAASGITVSSNYMSWVRQAPGKGLEWVSVIYSGGSTFYADSVKGRFTISRDNSKNTLYLQMNSLRAEDTGVYYCARGHDNLDYWGQGTLVTVSS
VL: LPVLTQPHSVSESPGKTVIISCTGSSDSIASNYVQWYQQRPGSAPTTVIYEDNKRPSGVPDRFSGSTDSSSNSASLTISGLKTEDEAEYYCQSYDSNNHWVFGGGTKLTVL
B12: STE73-6B10 (antibody, V domains shown)
VH: QVQLVQSGAEVKKPGASVKVSCKASGYTFTSYGISWVRQAPGQGLEWMGWINPNSGGTNYAQKFQGRVTMTRDTSISTAYMELSRLRSDDTAVYYCARDRLRYGDSGSYYYYGMDVWGQGTTVTVSS
VL: QSALTQPRSVSGSPGQSVTISCTGTSSDVGGYNYVSWYQQHPGKAPKLLISEVTRRPSGVPDRFSGSKSGNTASLTVSGLQTEDEADYYCGSYAGSNTWVFGGGTKLTVL
B13: STE73-2E9 (antibody, V domains shown)
VH: QVQLVQSGAEVKKPGASVKVSCKASGYTFTSYGISWVRQAPGQGLEWMGWISAYNGNTNYAQKLQGRVTMTTDTSTSTAYMELRSLRSDDTAVYYCARGKFDYWGQGTLVTVSS
VL: QSVLTQPPSVSEAPSQRVTISCSGSSSNIGNNAVNWYQQLPGKAPKLLIYYDDVLPSGVSDRFSGSKSGTSASLAISGLQSGDEADYYCAAWDDSLSGVVFGGGTKLTVL

What follows are binders tested against T1, receptor binding domain (RBD) of the S1-subunit of SARS-CoV-2 glycoprotein S (UniProt P0DTC2 319-541) (assay: flow).

| Binder | IC50 |
| --- | --- |
| B1 | 3 nM |
| B2 | 1.5 nM |
| B3 | 2.8 nM |
| B4 | 3.7 nM |
| B5 | 3.2 nM |
| B6 | 4.8 nM |

Molecular target: T1, receptor binding domain (RBD) of the …
Assay: flow
Remark: another data set of the same source

| Binder | IC50 |
| --- | --- |
| B7 | 4.1 nM |
| B8 | 3.4 nM |
| B9 | 1.7 nM |
| B10 | 2.8 nM |
| B11 | 3 nM |
| B12 | 73 nM |
| B13 | 3.4 nM |

These binders were tested against T2, RBD-mFc (UniProt P0DTC2 319-591) (assay: ELISA).

| Binder | EC50 |
| --- | --- |
| B1 | 4.7 nM |
| B2 | 1.5 nM |
| B3 | 1.5 nM |
| B4 | 0.7 nM |
| B5 | 1.1 nM |
| B6 | 1.6 nM |

These binders were tested against T3, S1-mFc (UniProt P0DTC2 14-694) (assay: ELISA).

| Binder | EC50 |
| --- | --- |
| B1 | 10.4 nM |
| B2 | 2.3 nM |
| B3 | 2.9 nM |
| B4 | 0.9 nM |
| B5 | 1.5 nM |
| B6 | 2.2 nM |

These binders were tested against S1- (UniProt P0DTC2 14-1210) (assay: ELISA).

| Binder | EC50 |
| --- | --- |
| B1 | 11.6 nM |

Molecular target: T2, RBD-mFc
Assay: ELISA
Remark: another data set of the same source

| Binder | EC50 |
| --- | --- |
| B7 | 2 nM |
| B8 | 1.4 nM |
| B9 | 0.5 nM |
| B10 | 0.7 nM |
| B11 | 9.6 nM |
| B12 | 17.3 nM |
| B13 | 0.7 nM |

Molecular target: T3, S1-mFc
Assay: ELISA
Remark: another data set of the same source

| Binder | EC50 |
| --- | --- |
| B7 | 2.8 nM |
| B8 | 1.6 nM |
| B9 | 0.8 nM |
| B10 | 1 nM |
| B11 | 17.9 nM |
| B12 | 15.3 nM |
| B13 | 0.6 nM |
